In PMC7397094 one finds IC50 of inhibition of GCAP1-activated RetGC1 activity, RetGC1 activity left with 100 nM RD3, % of that without RD3 (1.5 uM GCAP1) and IC50 of inhibition of GCAP1-activated RetGC1 activity (empirical estimate) data, which are given here for 42 substances.

Like-named read-outs stand apart in the source and are kept apart here.

Experiment [1] concerns the target human recombinant RetGC1 (retinal membrane guanylyl cyclase 1) (human) (UniProt Q02846).
The target is the same in experiment [2]. This is another data set of the same source.
Experiment [3] has the same target. The source holds these as a separate data set.
Experiment [4] shares this target. This is another data set of the same source.

Sequence of UniProt Q02846 (Q02846 52-1103): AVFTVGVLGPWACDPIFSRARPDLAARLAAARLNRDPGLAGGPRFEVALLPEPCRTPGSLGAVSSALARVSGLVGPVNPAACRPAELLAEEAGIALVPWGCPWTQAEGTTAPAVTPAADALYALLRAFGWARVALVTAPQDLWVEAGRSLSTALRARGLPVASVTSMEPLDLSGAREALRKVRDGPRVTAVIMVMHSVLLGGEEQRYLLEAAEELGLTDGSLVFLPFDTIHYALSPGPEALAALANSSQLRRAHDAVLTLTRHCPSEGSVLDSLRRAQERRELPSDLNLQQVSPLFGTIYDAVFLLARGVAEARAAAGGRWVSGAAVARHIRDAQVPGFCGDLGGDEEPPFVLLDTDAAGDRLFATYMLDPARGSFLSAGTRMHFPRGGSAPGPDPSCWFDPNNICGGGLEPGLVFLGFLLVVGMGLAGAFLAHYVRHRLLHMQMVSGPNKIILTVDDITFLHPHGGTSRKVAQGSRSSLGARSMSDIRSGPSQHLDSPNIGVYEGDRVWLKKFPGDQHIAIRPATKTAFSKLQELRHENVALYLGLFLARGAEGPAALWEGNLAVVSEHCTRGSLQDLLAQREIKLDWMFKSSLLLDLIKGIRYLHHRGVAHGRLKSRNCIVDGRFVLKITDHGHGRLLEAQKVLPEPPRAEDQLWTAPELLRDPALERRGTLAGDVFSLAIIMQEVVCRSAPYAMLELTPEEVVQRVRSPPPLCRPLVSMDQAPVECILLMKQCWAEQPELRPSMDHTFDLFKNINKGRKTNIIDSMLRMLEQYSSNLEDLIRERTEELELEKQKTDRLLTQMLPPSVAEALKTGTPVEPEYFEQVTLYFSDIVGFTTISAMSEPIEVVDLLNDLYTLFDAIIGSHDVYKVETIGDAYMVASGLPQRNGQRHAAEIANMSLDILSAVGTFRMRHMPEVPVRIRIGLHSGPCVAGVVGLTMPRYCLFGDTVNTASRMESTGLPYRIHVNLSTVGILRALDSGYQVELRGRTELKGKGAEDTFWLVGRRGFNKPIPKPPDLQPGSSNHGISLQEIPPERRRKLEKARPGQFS

Consider “RD3 W62A (from UniProt Q7Z3Z2 1-195) (natural protein)”, for which the IC50 of inhibition of GCAP1-activated RetGC1 activity in experiment [1] amounted to 253 nM. Besides, in experiment [2], the RetGC1 activity left with 100 nM RD3, % of that without RD3 (1.5 uM GCAP1) was 49.7%.
As for “WT RD3 (retinal degeneration-3), bacterially expressed (from UniProt Q7Z3Z2 1-195) (natural protein)”, the IC50 of inhibition of GCAP1-activated RetGC1 activity in experiment [1] came to 3.6 nM. Further, the RetGC1 activity left with 100 nM RD3, % of that without RD3 (1.5 uM GCAP1) in experiment [2] turned out to be 11%.
Take “RD3 W6L/W9L (from UniProt Q7Z3Z2 1-195) (natural protein)”: the RetGC1 activity left with 100 nM RD3, % of that without RD3 (1.5 uM GCAP1) in experiment [2] was 13.4%. Further, the IC50 of inhibition of GCAP1-activated RetGC1 activity in experiment [3] came to 4.5 nM.
For “RD3 Y60A (from UniProt Q7Z3Z2 1-195) (natural protein)”, the IC50 of inhibition of GCAP1-activated RetGC1 activity in experiment [1] was found to be 630 nM. In experiment [2], the RetGC1 activity left with 100 nM RD3, % of that without RD3 (1.5 uM GCAP1) amounted to 65.3%.
Consider “RD3 S74R (from UniProt Q7Z3Z2 1-195) (natural protein)”, for which the IC50 of inhibition of GCAP1-activated RetGC1 activity in experiment [1] stood at 15.6 nM. Moreover, the RetGC1 activity left with 100 nM RD3, % of that without RD3 (1.5 uM GCAP1) in experiment [2] was found to be 15.5%.
On to “RD3 W62A/L63R (from UniProt Q7Z3Z2 1-195) (natural protein)”, for which the IC50 of inhibition of GCAP1-activated RetGC1 activity (empirical estimate) in experiment [4] was > 10000 nM.
For “RD3 S61Y (from UniProt Q7Z3Z2 1-195) (natural protein)”, the IC50 of inhibition of GCAP1-activated RetGC1 activity in experiment [1] worked out at 11.8 nM. In experiment [2], the RetGC1 activity left with 100 nM RD3, % of that without RD3 (1.5 uM GCAP1) turned out to be 17.7%.
In the case of “RD3 H89G (from UniProt Q7Z3Z2 1-195) (natural protein)”, the IC50 of inhibition of GCAP1-activated RetGC1 activity in experiment [1] was found to be 10.6 nM. Further, the RetGC1 activity left with 100 nM RD3, % of that without RD3 (1.5 uM GCAP1) in experiment [2] was 13.2%.
In the case of “RD3 R101E (from UniProt Q7Z3Z2 1-195) (natural protein)”, the IC50 of inhibition of GCAP1-activated RetGC1 activity in experiment [1] was determined as 135 nM. In experiment [2], the RetGC1 activity left with 100 nM RD3, % of that without RD3 (1.5 uM GCAP1) was found to be 37.9%.
With “RD3 D59R (from UniProt Q7Z3Z2 1-195) (natural protein)”, the IC50 of inhibition of GCAP1-activated RetGC1 activity in experiment [1] was found to be 26.6 nM. Besides, the RetGC1 activity left with 100 nM RD3, % of that without RD3 (1.5 uM GCAP1) in experiment [2] was 24.1%.
The like results for “RD3 A105Y (from UniProt Q7Z3Z2 1-195) (natural protein)” were, in that order, 16.7 nM and 17.9%.
With “RD3 Q102L (from UniProt Q7Z3Z2 1-195) (natural protein)”, the IC50 of inhibition of GCAP1-activated RetGC1 activity in experiment [1] worked out at 59 nM. The RetGC1 activity left with 100 nM RD3, % of that without RD3 (1.5 uM GCAP1) in experiment [2] came to 28.5%.
Turning to “RD3 L63R (from UniProt Q7Z3Z2 1-195) (natural protein)”, the IC50 of inhibition of GCAP1-activated RetGC1 activity in experiment [1] was 882 nM. The RetGC1 activity left with 100 nM RD3, % of that without RD3 (1.5 uM GCAP1) in experiment [2] came to 82.8%.
For “RD3 R38S (from UniProt Q7Z3Z2 1-195) (natural protein)”, in experiment [2], the RetGC1 activity left with 100 nM RD3, % of that without RD3 (1.5 uM GCAP1) was 18.2%.
For the substance “RD3 R101A (from UniProt Q7Z3Z2 1-195) (natural protein)”, the IC50 of inhibition of GCAP1-activated RetGC1 activity in experiment [1] was 261 nM. Moreover, the RetGC1 activity left with 100 nM RD3, % of that without RD3 (1.5 uM GCAP1) in experiment [2] came to 48%.
“RD3 A105R (from UniProt Q7Z3Z2 1-195) (natural protein)”: the IC50 of inhibition of GCAP1-activated RetGC1 activity in experiment [1] was 3.6 nM. Moreover, the RetGC1 activity left with 100 nM RD3, % of that without RD3 (1.5 uM GCAP1) in experiment [2] was 8.5%.
For “RD3 Q43R (from UniProt Q7Z3Z2 1-195) (natural protein)”, in experiment [2], the RetGC1 activity left with 100 nM RD3, % of that without RD3 (1.5 uM GCAP1) was 5.3%.
Take “RD3 154KTRAR158→154ENSES158 (from UniProt Q7Z3Z2 1-195) (natural protein)”: the RetGC1 activity left with 100 nM RD3, % of that without RD3 (1.5 uM GCAP1) in experiment [2] amounted to 7.5%.
Same read-out and setting: then “RD3 E23R (from UniProt Q7Z3Z2 1-195) (natural protein)”, with 8.2%; and “RD3 F153R (from UniProt Q7Z3Z2 1-195) (natural protein)”, with 7.3%; and “RD3 Y71G (from UniProt Q7Z3Z2 1-195) (natural protein)”, with 15.4%.
Regarding “RD3 Y92A (from UniProt Q7Z3Z2 1-195) (natural protein)”, the IC50 of inhibition of GCAP1-activated RetGC1 activity in experiment [1] came out at 9.8 nM. Moreover, the RetGC1 activity left with 100 nM RD3, % of that without RD3 (1.5 uM GCAP1) in experiment [2] was 13.3%.
In the case of “RD3 A135R (from UniProt Q7Z3Z2 1-195) (natural protein)”, the RetGC1 activity left with 100 nM RD3, % of that without RD3 (1.5 uM GCAP1) in experiment [2] worked out at 9.1%.
Turning to “RD3 T28R (from UniProt Q7Z3Z2 1-195) (natural protein)”, in experiment [2], the RetGC1 activity left with 100 nM RD3, % of that without RD3 (1.5 uM GCAP1) came to 15.3%.
On to “RD3 R145D (from UniProt Q7Z3Z2 1-195) (natural protein)”, for which the RetGC1 activity left with 100 nM RD3, % of that without RD3 (1.5 uM GCAP1) in experiment [2] turned out to be 9.2%.
With “RD3 L103R (from UniProt Q7Z3Z2 1-195) (natural protein)”, the RetGC1 activity left with 100 nM RD3, % of that without RD3 (1.5 uM GCAP1) in experiment [2] turned out to be 12.1%.
Consider “RD3 77ERLQ80→77QLRE80 (from UniProt Q7Z3Z2 1-195) (natural protein)”, for which the RetGC1 activity left with 100 nM RD3, % of that without RD3 (1.5 uM GCAP1) in experiment [2] worked out at 11.5%.
On to “RD3 E106K (from UniProt Q7Z3Z2 1-195) (natural protein)”, for which the IC50 of inhibition of GCAP1-activated RetGC1 activity in experiment [1] was determined as 13.5 nM. Besides, the RetGC1 activity left with 100 nM RD3, % of that without RD3 (1.5 uM GCAP1) in experiment [2] was determined as 17.5%.
Take “RD3 P146ter (from UniProt Q7Z3Z2 1-145) (domain or fragment)”: in experiment [2], the RetGC1 activity left with 100 nM RD3, % of that without RD3 (1.5 uM GCAP1) was determined as 11.7%. In experiment [3], the IC50 of inhibition of GCAP1-activated RetGC1 activity is 3.4 nM.
With “RD3 G94Y (from UniProt Q7Z3Z2 1-195) (natural protein)”, in experiment [1], the IC50 of inhibition of GCAP1-activated RetGC1 activity worked out at 20.7 nM. In experiment [2], the RetGC1 activity left with 100 nM RD3, % of that without RD3 (1.5 uM GCAP1) was determined as 22.5%.
Turning to “RD3 D72R (from UniProt Q7Z3Z2 1-195) (natural protein)”, the RetGC1 activity left with 100 nM RD3, % of that without RD3 (1.5 uM GCAP1) in experiment [2] was 5.5%.
Still for that read-out and setting: next, “RD3 V86R/K87A (from UniProt Q7Z3Z2 1-195) (natural protein)”: 7.1%.
Regarding “RD3 R101A/Q102L (from UniProt Q7Z3Z2 1-195) (natural protein)”, the IC50 of inhibition of GCAP1-activated RetGC1 activity in experiment [1] was 4460 nM.
As to “RD3 E27R (from UniProt Q7Z3Z2 1-195) (natural protein)”, the RetGC1 activity left with 100 nM RD3, % of that without RD3 (1.5 uM GCAP1) in experiment [2] was determined as 6.6%.
For the substance “RD3 I97Y (from UniProt Q7Z3Z2 1-195) (natural protein)”, the RetGC1 activity left with 100 nM RD3, % of that without RD3 (1.5 uM GCAP1) in experiment [2] amounted to 55%.
As for “RD3 T34Q (from UniProt Q7Z3Z2 1-195) (natural protein)”, in experiment [2], the RetGC1 activity left with 100 nM RD3, % of that without RD3 (1.5 uM GCAP1) came out at 8.1%.
On to “RD3 R99E (from UniProt Q7Z3Z2 1-195) (natural protein)”, for which the IC50 of inhibition of GCAP1-activated RetGC1 activity in experiment [1] is 35.5 nM. The RetGC1 activity left with 100 nM RD3, % of that without RD3 (1.5 uM GCAP1) in experiment [2] was 27.1%.
Consider “RD3 W6L (from UniProt Q7Z3Z2 1-195) (natural protein)”, for which the RetGC1 activity left with 100 nM RD3, % of that without RD3 (1.5 uM GCAP1) in experiment [2] was determined as 11.1%.
On to “RD3 A151R/T152Q (from UniProt Q7Z3Z2 1-195) (natural protein)”, for which the RetGC1 activity left with 100 nM RD3, % of that without RD3 (1.5 uM GCAP1) in experiment [2] stood at 7.1%.
Turning to “RD3 A22E (from UniProt Q7Z3Z2 1-195) (natural protein)”, the RetGC1 activity left with 100 nM RD3, % of that without RD3 (1.5 uM GCAP1) in experiment [2] came out at 6.4%.
Turning to “RD3 E110R (from UniProt Q7Z3Z2 1-195) (natural protein)”, the RetGC1 activity left with 100 nM RD3, % of that without RD3 (1.5 uM GCAP1) in experiment [2] is 9.6%.
Turning to “RD3 S120Y (from UniProt Q7Z3Z2 1-195) (natural protein)”, in experiment [2], the RetGC1 activity left with 100 nM RD3, % of that without RD3 (1.5 uM GCAP1) was 8.2%.
